Reference: PMC4516285 (Biochemistry, 2015)

T1: wild type Escherichia coli CheY (E. coli, UniProt P0AE67 2-129)
T1 sequence: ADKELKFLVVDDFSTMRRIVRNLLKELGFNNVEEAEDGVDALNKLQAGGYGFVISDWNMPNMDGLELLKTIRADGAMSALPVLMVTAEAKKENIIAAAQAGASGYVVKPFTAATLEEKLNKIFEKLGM

B1: FliM_(1–16) peptide (amino terminal 16 residues of E. coli FliM) (peptide)
peptide: MGDSILSQAEIDALLN

Key:
[1] = biological target: FliM 1-16 (Escherichia coli) (UniProt P06974); conditions: cited from earlier work
[2] = biological target: T1, wild type Escherichia coli CheY; assay: other fluorescence titration

Molecule	Kd [1] [µM]	Kd [2] [µM]
CheY (from UniProt P0AE67)	280	–
B1	–	370
